Measurements published in patent US7838288B2, “Modulators of odorant receptors” (Duke University, priority 2004, dated 2010).

Columns and labels:
[1] = molecular target: T1, mouse odorant receptor OREG (Mus musculus, UniProt Q920P2); experiment: CRE-luciferase reporter gene assay, OREG; type: cell-based; conditions: 293T cells; compared to OR alone or control pCI
T1 construct: expressed in transfected cells; host or cells: 293T cells (with or without co-transfected REEP1/RTP1/RTP2) and Hana3A cells (293T stably expressing mouse REEP1, RTP1, RTP2, Galpha-olf)
T1 sequence (Q920P2 1-313): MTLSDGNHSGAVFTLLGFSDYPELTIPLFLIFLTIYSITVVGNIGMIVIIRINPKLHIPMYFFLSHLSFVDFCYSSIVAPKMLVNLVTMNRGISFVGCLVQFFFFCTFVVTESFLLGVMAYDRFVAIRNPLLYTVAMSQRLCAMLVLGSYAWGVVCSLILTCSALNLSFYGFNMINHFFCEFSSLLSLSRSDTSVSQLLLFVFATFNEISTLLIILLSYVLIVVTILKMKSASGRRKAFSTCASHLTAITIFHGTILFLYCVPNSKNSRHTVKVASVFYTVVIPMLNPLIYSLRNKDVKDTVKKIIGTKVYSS
Method in brief: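 293T-derived cells stably expressing REEP1, RTP1, RTP2 and Gαolf, transfected with OREG, CRE-luciferase and SV40-Renilla control. Odorant applied in CD293 medium for 10 h or 4 h at 37 degrees C. Output is firefly luminescence minus no-odorant value, normalized to Renilla.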

[2] = tested on: MOR23-1; experiment: CRE-luciferase reporter gene assay, MOR23-1; type: cell-based, mouse; conditions: 293T cells expressing RTP1 variant
Experimental: Four ORs (S6/79, S18, S46 and S50) previously assayed using other techniques (see, e.g., Malnic, B., et al. (1999) Cell 96, 713-723; herein incorporated by reference in its entirety) were tested against an assay panel of aliphatic alcohols, aldehydes and acids and some other odorants. Additionally, five “orphan” class I ORs (MOR23-1, MOR31-4, MOR31-6, MOR32-5 and MOR32-11) whose cognate ligands were unknown were tested. At a suprathreshold concentration of 100 uM, all these ORs were odorant selective, responding to only a small subset of the odorants tested (see FIG. 11A). This specificity was retained at lower, more physiologically relevant concentrations. Many of these ORs responded to odorants present in micromolar concentrations. The cell-surface expression of these ORs by living-cell immunofluorescence were evaluated. Some ORs (S18, MOR31-4, MOR31-6 and MOR32-5) were strongly expressed while other ORs (S6, S50, MOR23-1, MOR32-11) were weakly expressed (see FIG. 12). […]
Dual-Glo system (Promega) for luciferase assay was used. […] Luminescence was measured using Wallac Victor 1420 (Perkin-Elmer). Normalized luciferase activity was calculated as [Luc (N)-Luc (0)]/RL (N), where Luc (N)=Luminescent count of a certain well, Luc (0)=Luminescent count without odorant for each OR, and RL (N)=Luminescent count of Renilla Luciferase of each well. […]

- OREG activity by luciferase, accessory protein co-expressed [1]: Increased enhancement
- 23-1 activity as indicated by luciferase expression [2]: Increased enhancement
B1: RTP1-A1: RTP1 variant from deleting portions of RTP1-A; murine SEQ ID NO: 46, human SEQ ID NO: 47 (protein, listed as Mus musculus)
chain: MCKSVTTGEWKKVFYEKMEEVKPADSWDFIIDPNLKHNVLAPGWKQYLELHASGRFHCSWCWHTWQSPHVVILFHMYLDKAQRAGSVRMRVFKQLCYECGTARLDESSMLEENIESLVDNLITSLREQCYGERGGHYRIHVASRQDNRRHRGEFCEACQEGIVHWKPSEKLLEEEATTYTFSRAPSPTKPQAETGSGCNFCSIPWCLFWATVLMLIIYLQFSFRTSV
